Results reported in patent US20040005639A1, “Glycerylaldehyde-3-phosphate dehyrogenase promoter inducing cell death” (priority 2000, published 2004).

Tests used:
CGCs = assay: Probability of survival of CGCs treated with AraC; format: cell-based, rat
Method: (§1) CGCs were prepared according to the previous report (J. Neurochem., 66,928-935 (1996)). 16 hours after plating, the following were mixed and added to the non-serum cultures. In addition, it mixed beforehand and added in the culture so that the ratio of A and B might be set to 5:1, it might serve at a final concentration of 2 micro g/mL, C might be set to 1 micro L/micro g DNA and D might be set to 6 micro L/micro g DNA.
(§2) The cells were washed 20 hours after plating and the culture was continued for further 4 hours. […]
The probability of survival of CGCs treated with AraC (500 micro M) was 68% for 14 hours and 44% for 24 hours.

[1] = test system: rat cerebellum origin granule cells (CGCs); assay: Reporter assay: luciferase activity of CGCs transfected with promoter-pGL3-enhanser vector, after AraC addition; format: cell-based; conditions: for luciferase activity: vector without promoter set to 1.0
Method: The plasmid which inserted promoter sequence (p104-pCR-Script Amp SK (+) and p302-pCR-Script Amp SK (+)) were cleaved at BsmBI site which exists just upstream of translation starting site of GAPDH protein and was created blunt-ends. The fragment was cleaved at the MluI site of 5′-end, sequence including promoter sequence was excised.
The pGL3-enhanser vector (Promega) was opened the MluI-SmaI site, and each promoter sequence excised here was inserted.
Reporter assay was performed with each vector as follows. Reporter assay used the primary culture cell of rat cerebellum origin granule cells (CGCs).
as §1
A) p104-pGL3-enhanser vector or p302-pGL3-enhanser vector both vector contains a firefly luciferase gene on the downstream of the promoter.
B) pRL-SV40 vector (it includes Renilla luciferase gene as an internal standard enzyme on the downstream of SV40 promoter currently activated constantly),
as §2

## Nc1ccn([C@@H]2O[C@H](CO)[C@@H](O)[C@@H]2O)c(=O)n1 [AraC, cytosine arabinoside]
CGCs; AraC 10 micro M, 14 or 24-hours culture
  probability of survival of CGCs: more than 90%
CGCs; AraC 500 micro M, 14 hours
  probability of survival of CGCs: 68%
CGCs; AraC 500 micro M, 24 hours
  probability of survival of CGCs: 44%

B1: p104: 1.2 kb rat GAPDH promoter fragment amplified from the EcoRV genome library, SEQ ID NO: 1 (nucleic acid, listed as Rattus norvegicus)
DNA: ACTATAGGGCACGCGTGGTCGATGGCTTGGGTTGGTATCTACGACTAAACAAGAGAGAGAATGAGATTAATCTCCGCATAATAGTGTGTATCGGCTGAACATACACAGACACACACAGACACACACATACACACAGACACAGAAACATACGCTTAGCACACACAGAAGCACACATACACAGACAGAAACTCACATACACAGAGACCCACAGATATAGACACACAGAGACACAGATGCACACACAGACCTACTTACACACTCATAGACATAGATACACACACATAGACACACACTGACATATCAACACACCTACAGACACACACACCACACATACGCACACACACATACATGAACACACACATACACACGCACACACATACACACACATGGAAACACATGTTTTATGAAGATCTAGGAATTACCCCAATCACAGTAGAATGGATGCCTGTGTTGGGACCCAGGAGGGACAGGAAATAGAAATGGGCTAGGGGGCTGGAGAGATGGCTCAGAGGTTAAGAGCACTGTCTGCTCTTCCAGAGGTCCGGAGTTCAATTCCCAGAAACCACATGGTGGCTCACAACCATCTATAATCAGGTCTGGTGCCCTCTTCTGGCCTGCAGGCATACATGCAAGCAGAAAGCTGTATGATGTATACATAATAAATAAATAAATTTGAAAAAAAAGAAATGGGCTTAGGGGTGATGGGAAGAGAAGGACTCTGAAGGTCTGTAGACCGCTCATAAACTGGGGCAGACGTTGCTCCTGCTTGAGCACCTGACTTCCCAGTCCATTGCCACCATGGTCTTTGTGCCACCATGGCCAGTCCAAGGCCATCCTTAAACAGGCTGCAAAAAGTTTTAACTAGGACCATTAGATTGTCTCTTAAAACTATGAAAGGTTTTACTTTATTTCTCTCTCTCTCTCTCTCTCTCTCTCTCTCTCATTTTAAAAATATTTTTTCGGCTCTCTGCTCCTCCCTGTTCTAGAGACAGCCGCATCTTCTTGTGCAGTGCCAGCCTCGTCTCATAGACAAGATGGTGAAGGTCGGTGTGAACGGATTTGGCCGTATCGGACGCCTGGTTACCAGGGCTGCCTTCTCTTGTGACAAAGTGGACACTGTTGCC
modifications: CDS (1035)..(1124)
[1]; 24 hours after AraC addition, CGCs transformed by p104-pGL3-enhanser vector
  increase of luciferase activity: 1.7 times
[1]; AraC 10 micro M (Table 2), result in words
  promoter activation: neither of the two promoters (p104 and p302) showed significant activation
[1]; Table 1, AraC 500 micro M, culture time after addition 14 hours
  luciferase activity: 1.7
[1]; Table 1, AraC 500 micro M, culture time after addition 24 hours
  luciferase activity: 2.4
[1]; Table 2, AraC 10 micro M, culture time after addition 14 hours
  luciferase activity: 1.2
[1]; Table 2, AraC 10 micro M, culture time after addition 24 hours
  luciferase activity: 1.3
